Paper PMC3942423 (Nature chemical biology, 2009)

Assays:
[1] = substrate: O=[N+]([O-])c1ccc(O[C@H]2O[C@H](CO)[C@@H](O)[C@H](O)[C@@H]2O)cc1; experiment: 4NP-Man hydrolysis kinetics; assay type: biochemical, Bacteroides thetaiotaomicron; conditions: other: substrate 4NP-Man
[2] = substrate: OC[C@H]1O[C@H](O[C@H]2[C@@H](O)[C@H](O)[C@@H](CO)O[C@@H]2O)[C@@H](O)[C@@H](O)[C@@H]1O; experiment: mannobiose hydrolysis kinetics; assay type: biochemical, Bacteroides thetaiotaomicron; conditions: other: most active mannobiose substrate

B1: Bt3994 (Bacteroides thetaiotaomicron VPI-5482) (protein)
chain: EIDYTSYVNPFIGTDFTGNTYPGAQAPFGMVQLSPDNGLPGWDRISGYFYPDSTIAGFSHTHLSGTGAGDLYDISFMPVTLPYKEAEAPLGIYSKFSHDEESAYAGYYQVRLKDYHINVELTATERCGIQRYTFPKAEAAIFLNLKKAMNWDFTNDSHIEVVDSVTIQGYRYSDGWARDQRIYFRTRFSKPFDKVELDTTAIIKDKQHIGTAVIARFDFHTEEGEQILVNTAISGVSMEGAAKNLQAEVPENDFDKYLAETKANWNRQLGKIEVEGDNQDDKVNFYTALYHSMIAPTIYSDVDGAYYGPDKKVHQSDGWVNYSTFSLWDTYRAAHPLFTYTEPERVNDMVKSFIAFFEQNGRLPVWNFYGSETDMMIGYHAVPVIVDAYLKGIGNFDAEKALAACVATANLDNYRGIGLYKQLGYIPYNVTDHYNAENWSLSKTLEYAFDDYCIAEMANKMGKKEIADEFYKRSQNYKNVYNPATSFMQPRDDKGNFIKDFKADEYTPHICESNGWQYFWSVQHDIDGLIDLTGGKNRFAEKLDSMFTYHPAADEELPIFSTGMIGQYAHGNEPSHHVIYLFNAVGQQNLTQKYVAKVMNELYKNEPAGLCGNEDCGQMSAWYVFSAMGFYPVNPVSGKYEIGTPLFPEMKLHLANGKTFTVLAPKVSKENIYIQSIKVDGQPYNKTYLTHEQIMSGTTVEFEMGNTPLVEVEFEEQTQ
Q: How did the Km ([1]; enzyme Bt3994, pH 7.0) turn out when B1 was run?
A: 3700 ± 430 µM

Q: And the kcat ([1]; enzyme Bt3994, pH 7.0)?
A: 1.57 ± 0.0933 s⁻¹

Q: What about the kcat/Km ([1]; enzyme Bt3994, pH 7.0) of the same protein?
A: 433 M⁻¹ s⁻¹

B2: Bt3784 (Bacteroides thetaiotaomicron VPI-5482) (protein)
chain: MKTHFSFKHLLFIGGAVLYSMQISAVKNPVDYVSTLVGTQSKFELSTGNTYPATALPWGMNFWTPQTGKMGDGWAYTYNADKIRGFKQTHQPSPWMNDYGQFSIMPITGGLVFDQDQRASWFSHKAEVAKPYYYKVYLADHDVTTELVPTERAAMFRFTYPETKNAYVVIDAFDKGSYVKVIPEENKIIGYSTKNSGGVPENFKNYFVIQFDKPFTFTSGVKENNILPNETEVQGNHTGAIIGFATQKGEIVHARVASSFISYEQAELNLKELGKDSFDQLVTKGKDIWNREMSKVDVEDDNIDNLRTFYSCLYRSMLFPRSFYEIDAKGQVVHYSPYNGKVLPGYMFTDTGFWDTFRCLFPFLNLMYPSMNQKMQEGLVNAYLESGFLPEWASPGHRDCMVGNNSASVVADAYIKGLRGYDIETLWEALKHDANAHLRGTASGRLAYDAYNKLGYVPNNIGIGQNVARTLEYAYNDWTIYTLGKKLGKPASEIDIFKQRALNYKNVYHPKRKLMVGKDDKGVFNPKFDAVDWSGEFCEGNSWHWSFCVFHDPQGLIDLMGGKKEFNNMMDSVFVIPGKQGMESRGMIHEMREMQVMNMGQYAHGNQPIQHMVYLYNYSGEPWKAQHWVREIMDKLYTAGPDGYCGDEDNGQTSAWYVFSALGFYPVCPGTDQYILGTPLFKSAKLHLENGKTVTIKASNNNTDNRYVKDMKVNGKAFTRNYLTHDQLLKGANIQYQMSPTPNKQRGTTEKDIPYSLSFE
Q: For B2, which kcat ([2]; enzyme Bt3784, pH 7.0) is on record?
A: 0.45 ± 0.0917 s⁻¹

Q: And the kcat/Km ([2]; enzyme Bt3784, pH 7.0)?
A: 183 M⁻¹ s⁻¹

Q: What about the kcat ([1]; enzyme Bt3784, pH 7.0) of the same protein?
A: 0.08 ± 0.0065 s⁻¹

Q: What about the kcat/Km ([1]; enzyme Bt3784, pH 7.0) of the same protein?
A: 11.5 M⁻¹ s⁻¹

B3: Bt4092 (Bacteroides thetaiotaomicron VPI-5482) (protein)
chain: QLKDLVQYVNTLQGTDSNFGLSYGNTYPTTGMPYGMHMWSAQTGKNGDGFKYMYAVDKIRAFSQSHQCSPWVSDYAVYSFMPMVGELVVNQDARATKFSHDNEIAKPHYYKVTFDNGITTEMAPTTRGVHLRFSYPTTGDAYLVLDGYTDMSEIKIDPAKRQISGWVNNQRFVNDSKSFRNYFVVQFDKPFEDYGVWENQKDEVFPQKLDGAGKGYGAFIKFKKGSKVQAKAASSYISAEQALITLNKELGKDKNLEVTKARGQKTWNEVLNRIVVEGCTDEQMKTFYSCLFRANLFSRKFYERKENGEPYYYSPYNGKIYDGYMYTDNGFWDTFRSQFPLTNILHPTMQGRYMNALLAAQEQCGWLPSWSSPGETGGMLGNHSISLLADAWAKGIRDFDPEKALKAYAHEAMNKGPWGGANGRGFWKEYFQLGYVPYPESMGSSAQTMEYAYDDFCGYQLAKMVGNKHYQEVFARQMYNYKNVFDKSIGFMRGKGVDGKWQEPFDPLEWGGPFCEGNAWHYTWSVFHDVQGLIDLFGSDEKFTTKIDSVFTIPNIIKPGTYGGVIHEMKEMELANMGQYAHGNQPIQHMPYLYCYAGQPWKTQYWVRQIVERLYNSTEKGYPGDEDQGGMSSWYILSSLGIYAVCPGTDEYVIGSPLFKKATITMENGNKFVIEAPENSKENLYIQSATLNGRLLDKNYIHYDDIAEGGVLKFEMGSQPNKERCTSKYAAPFSLSKE
Q: For B3, which Km ([2]; enzyme Bt4092, pH 7.0) is on record?
A: 2000 ± 450 µM

Q: What about the kcat ([2]; enzyme Bt4092, pH 7.0) of the same protein?
A: 1.83 s⁻¹

Q: And the kcat/Km ([2]; enzyme Bt4092, pH 7.0)?
A: 900 M⁻¹ s⁻¹

B4: Bt3130 (Bacteroides thetaiotaomicron VPI-5482) (protein)
chain: GEITKYVNPFIGTGAIDGGLSGNNYPGATSPFGMIQLSPDTSEAPNWGDASGYDYNRNTIFGFSHTRLSGTGASDLIDITLMPTSSGRTSSAFTHDEEKARPGYYQVMLKDENINAELTTTQRNGIHRYQYPAGKDAEIILDMDHSADKGSWGRRIINSQIRILNDHAVEGYRIITGWAKLRKIYFYMEFSSPILTSTLRDGGRVHENTAVINGTNLHGCFRFGQLNGKPLTCKVALSSVSMENARQNMEQEAPHWDFDRYVAAADADWEKQLGKIEVKGTEVQKEIFYTALYHTMIQPNTMSDVNGEYMAADYTTRKVANNETHYTTFSLWDTFRASHPLYTLLEPERVTDFVKSMIRQYEYYGYLPIWQLWGQDNYCMIGNHSIPVITDAILKGIPGIDMEKAYEAVYNSSVTSHPNSPFEVWEKYGFMPENIQTQSVSITLEQAFDDWCVAQLAAKLNKDADYQRFHKRSEYYRNLFHPKTKFFQSKNDKGEWIEPFDPYQYGGNGGHPFTEGNAWQYFWYVPHNIQALMELTGGTKAFEQKLDTFFTSTYKSEQMNHNASGFVGQYAHGNEPSHHVAYLYNFAGQPWKTQKYVSHILNTLYNNTSSGYAGNDDCGQMSAWYVFSAMGFYPVNPADGRYIIGSPLLDECTLKLAGNKEFRIRTIRKSPEDIYIQSVTLNGKKHKDFFITHQDIMNGGTMVFKMGKKPSGWGK
Q: B4 was tested. Which Km ([1]; enzyme Bt3130, pH 7.0) did it give?
A: 510 ± 97 µM

Q: And the kcat ([1]; enzyme Bt3130, pH 7.0)?
A: 56.7 ± 3.17 s⁻¹

Q: And the kcat/Km ([1]; enzyme Bt3130, pH 7.0)?
A: 112000 M⁻¹ s⁻¹

B5: Bt3963 (Bacteroides thetaiotaomicron VPI-5482) (protein)
chain: QQPVDYVNPIIGTNGMGHTFPGACTPFGWVQLSPDTDTIPHNVNGAYQKNAYEYCAGYQYRDKTIVGFSHTHLSGTGHSDLGDILLMPAVGDVKLNPGRADHPEEGYRSRFDHATEKATPGYYEVMLDDYGIKAQLTATQRTGVHKYTFPKGKDGHLILDLVHGIYNYDGKVLWANLRVENDTLLTGYRITNGWARTNYTYFAISLSQPIKDYGYKDKEKVLYNGFWRRFKLEKNFPEITGRKIVAYFNFETAKDPELVVKVALSAVSTEGAVKNLRAEASGKSFEQLAEAARTDWNNELDHFEIEGTPDQKAMFYTSLYHTMINPSVYMDVDGSYRGLDHNIHQAKGFTNYTIFSLWDTYRAEHPFLNLVKPERNADMVESMIKHEQQSVHGMLPIWSLMGNENWCMSGYHAVSVLADAITKGVFSNVDEALSAMVSTSTVPYYEGVADYMKLGYIPLDKSGTAASSTLEYAYDDWTIYQTALKAGNKEIADTYRKRALNYRNIYDTSIGFARPRYSDGTFKKEFDVLQTYGEGFIEGNSWNFSFHVPHDVFGMIDLMGGEKTFVQKLDELFSMHLPEKYYEHNEDITEECLVGGYVHGNEPSHHVPYLYAWTSQPWKTQYWLREILNKMYKNDINGLGGNDDCGQMSAWYLFSVMGFYPVCPGTDQYVLGAPYLPYLKLTLPNGKTLEIKAPGVSDKKRYVQSLKLNGESYDKMYITHEDILKGGVLEFKMSASPNKRRGVSVQDKPYSLTNGIN
Q: B5 was tested. Which Km ([1]; enzyme Bt3963, pH 7.0) did it give?
A: 790 ± 80 µM

Q: And the kcat ([1]; enzyme Bt3963, pH 7.0)?
A: 0.00045 ± 1.67e-05 s⁻¹

Q: What about the kcat/Km ([1]; enzyme Bt3963, pH 7.0) of the same protein?
A: 0.567 M⁻¹ s⁻¹

B6: Bt3991 (Bacteroides thetaiotaomicron VPI-5482) (protein)
chain: MKLKTLLIGCFGGFIMLNSCTESPSVKDYSAYVNPFIGTGGHGHTFPGAVVPHGMIQPSPDTRIDGWDACSGYYYDDNTINGFSHTHVSGTGCCDYGDVLLMPTVGKPQYLTTDPESQKLAYASAFSHENETAEPGYYSVFLDTYQVKAEITATKRGAIHRYTFPESTESGFIIDLDYSLQRQTNYEMEIEVISDTEICGHKKTTYWAFDQYINFYAKFSKPFAYTLITDSVTMDNGKRLPVCKAVLHFNTKKDEEVLVKVGVSAVDIAGARKNVESEIPEWDFDKVRKDARTAWNNYLSKIDITTSDKEDKTIFYTALYHTAISPNLFTDADGRYLGMDLEVHQGDTINPLYTVFSLWDTFRALHPLMTIIDPNLNNQFINSLIRKHQEGGIYPMWDLASNYTGTMIGYHAVPVIVDAYMKGYRNFDAHEAYKASLRAAEYDTTGIKCPDLVLPHLMPKAKYYKNAIGYIPCDRENESVAKALEYAYDDWCISIFAEAMNDFENKAKYERFAKAYEFYFDKSTRFMRGLDSNGEWRTPFNPRASTHRSDDYCEGTAWQWTWFVPHDVEGLVKLMGGEDAFVEKLDSLFTVDSSLDGETTSADISGLIGQYAHGNEPSHHVIHLYNYVNRPWRTQELVDSVYRSQYANNVDGLSGNEDCGQMSAWYILNSMGFYQVCPGKPVYSIGRPAFDKAVINLPGEKTFSIVAKNNSKSNKYIESVLLNGKPLDTPFFGHQDIVAGGVMEIRMTDHPTQWGVRQ
Q: Which results are given for B6?
A: kcat ([1]; enzyme Bt3991, pH 7.0): 0.0025 ± 0.00035 s⁻¹; kcat/Km ([1]; enzyme Bt3991, pH 7.0): 0.917 M⁻¹ s⁻¹

B7: Bt1032 (Bacteroides thetaiotaomicron VPI-5482) (protein)
chain: GEGKAPPMDKEKSLLIDYVDPFIGTTNFGTTNPGAVCPNGMMSVVPFNVMGSADNTYDKDARWWSTPYEHTNCFFTGYSHVNLSGVGCPELGSLLLMPTTGELNVDYKEYGSKYKDEQASPGYYSNYLTKYNIKTEVSATPRTGIARFTFPKGESHILLNLGEGLTNESGAMLRRVSDSEIEGMKLLGTFCYNPQAVFPIYFVMRVNKVPATTGYWKKQRPMTGVEAEWDRDQGKYKLYTRYGKEIAGDDVGAYFTFETEEGEQVEVQMGVSFVSIENARLNLDKEQSGKNFEQVLSDARAQWNDDLSRITVEGGTDAQKTVFYTALYHLLIHPNVLQDVNGEYPAMESDQILTTKGTRYTVFSLWDTYRNVHQLLTLVYPERQMEMVRTMLDMYREHGWFPKWELYGRETLTMEGDPSIPVIVDTWMKGLRDFDVDLAYEAMYKSATLPGAENLMRPDNDDYMSKGYVPLREQYDNSVSHALEYYIADFALSRFADALGKKKDAEMFYKRSLGYKHYYSKEFGTFRPILPDGTFYSPFNPRQGENFEPNPGFHEGNSWNYTFYVPHDVYGLAKLMGGKKPFVNKLQMVFDEGLYDPANEPDIAYAHLFSYFKGEEWRTQKETQRLLDKYFTTKPDGIPGNDDTGTMSAWAIFNMIGFYPDCPGLPEYALTTPVFNKVTIRLDPKWYKENELVIESNRTGSETLYINKVLLDGKKFNKYRITHDELVHGKRLIFDLK
Q: With B7 as the protein, how does the Km ([1]; enzyme Bt1032, pH 7.0) read?
A: 1700 ± 360 µM

Q: What about the kcat ([1]; enzyme Bt1032, pH 7.0) of the same protein?
A: 0.006 ± 0.000633 s⁻¹

Q: And the kcat/Km ([1]; enzyme Bt1032, pH 7.0)?
A: 3.5 M⁻¹ s⁻¹
